{
  "source": "patent US20200199214A1",
  "about": "(Hoffmann-La Roche, published 2020)",
  "binders": {"B1": {"name": "bispecific anti-VEGF/anti-IL-1beta Fab fragment RO7200394 (Fab, V domains shown)", "VH": "DEQLVESGGGLVKPGGSLRLSCAAEGMVFKWNDMSWVRQAPGKGLEWVGSISKKGDHKYLNTKFIGRFTISRDNEKDTLYLQMNSLRAEDTAVYYCAKDVGFFDIWGQGTLVTVSS", "VL": "AIYMHQEPSSLSASVGDRVTITCHGSYWLSSLVAWYQQKPGKAPKLLIYDAKYKHLGVPSRFSGSKEDQEFTLTISSLQPEDFATYYCQQYRYHPYTFGHGTKVEIKR", "notes": "same variable domains as 1HVL12.85; also called R07200394"}},
  "biological_target": "T1, human IL-1 beta (PeproTech 200-01B) (human, UniProt P01584 117-269)",
  "T1 construct": "As printed it covers only the N-terminal part of the precursor, so it was not used; also called huIL-1 beta; IL1β",
  "assay": "SPR competition: Fab preincubated with 50 nM IL-1beta, injected over immobilised IL-1bR1 (competitor); in presence of VEGF",
  "experimental": "As running and dilution buffer, HBS-P+(10 mM HEPES, 150 mM NaCl pH 7.4, 0.05% Surfactant P20) was used.\nFor assessing VEGF-receptor binding inhibition, a final concentration of 200 nM of R07200394 or 400 nM antibody 0032 was preincubated with 50 nM VEGF121. For assessing IL-1beta-receptor binding inhibition, a final concentration of 200 nM of R07200394 or 200 nM antibody 0032 was with preincubated with 50 nM IL-1beta. Samples were diluted (1:2) in the corresponding 50 nM VEGF121 or IL-1beta solution.\nThe antibody/ligand mixtures were injected onto the VEGFR2 or IL-1R1 surface for 60 s at a flow rate of 5 μl/min. After a dissociation phase for 60 s, the VEGFR2 surface was regenerated by injecting 5 mM NaOH for 60 s, whereas the IL-1R1 surface was regenerated by injecting 10 mM Glycine pH 3.0 followed by 5 mM NaOH for 60 s each. Bulk refractive index differences were corrected by subtracting blank injections and by subtracting the response obtained from the blank control flow cell. For evaluation, the binding response 5 seconds after inject end was taken. The derived response in RU was transformed to a binding response relative to the initial signal corresponding to the ligand(s) without antibody. IC50 values were calculated using a 4 parameter logistic model (XLfit, ID Business Solutions Ltd.)",
  "data": [
    {"binder": "B1", "values": [
      {"measurement": "IC50", "result": 24, "unit": "nM"}
    ]}
  ]
}
